Experimental data as given in patent publication US20260285989 (published 2026).

T1: IL-18RAP ECD-His (human)
T1 chain: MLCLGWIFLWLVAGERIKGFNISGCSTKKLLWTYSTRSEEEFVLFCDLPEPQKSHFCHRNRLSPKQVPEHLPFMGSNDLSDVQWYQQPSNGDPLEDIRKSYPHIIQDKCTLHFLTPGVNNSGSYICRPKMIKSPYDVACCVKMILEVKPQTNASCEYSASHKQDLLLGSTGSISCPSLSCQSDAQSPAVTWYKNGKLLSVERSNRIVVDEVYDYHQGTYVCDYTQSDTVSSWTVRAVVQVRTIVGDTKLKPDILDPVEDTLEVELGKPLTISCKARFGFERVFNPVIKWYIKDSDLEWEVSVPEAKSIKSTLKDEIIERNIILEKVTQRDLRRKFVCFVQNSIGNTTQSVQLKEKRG

T2: IL-18R1 ECD-His (human)
T2 chain: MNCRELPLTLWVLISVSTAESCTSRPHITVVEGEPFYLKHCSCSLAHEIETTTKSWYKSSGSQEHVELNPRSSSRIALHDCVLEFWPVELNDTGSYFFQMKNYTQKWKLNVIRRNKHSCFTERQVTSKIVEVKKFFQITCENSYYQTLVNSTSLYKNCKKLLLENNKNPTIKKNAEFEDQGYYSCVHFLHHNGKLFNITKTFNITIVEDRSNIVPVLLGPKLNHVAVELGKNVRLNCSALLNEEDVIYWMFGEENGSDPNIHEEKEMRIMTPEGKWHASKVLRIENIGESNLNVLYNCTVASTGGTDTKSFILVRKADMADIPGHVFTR

B1: Rap-A10-hFc (designed binder)
chain: QVQLQESGGGLVQAGGSLKLSCAASGYTYGPYCMGWFRQFPGKEREGVAAVGGDGRTWYGNSVKGRFTISQDNAKKTLYLQINALKPEDTAMYYCAADFDRTVCSDDIYDYTYRGQGTQVTVSS
B2: hzRap-F11-hFc (antibody, V domains shown)
VH: EVQLVESGGGLVQPGGSLRLSCAASGFTYIPAYMGWFRQAPGKERERVASIKTDASTTYADSVEGRFTISQDNAKNTLYLQMNSLRPEDTAVYYCAAYQFGAFRVWGQGTLVTVSS
B3: hzRap-A10-hFc (designed binder)
chain: EVQLLESGGGLVQPGGSLRLSCAASGYTYGPYCMGWFRQAPGKEREGVAAVGGDARTWYGNSVKGRFTISRDNSKNTLYLQMNSLRAEDTAVYYCAADFDRTVCSDDIYDYTYRGQGTLVTVSS
B4: Rap-F11-hFc (antibody, V domains shown)
VH: QVQLQESGGGSVQPGGSLRLSCAASGFTYIPAYMGWFRQAPGKERERVASIKTDGSTTYADSVNGRFTIAQDTAKNTLYLQMDSLKPEDTAMYYCAAYQFGAFRVWGQGTQVTVSS
B5: Rap-C10-hFc (antibody, V domains shown)
VH: QVQLQESGGGSVQPGGSLRLSCAASGFTYIPAYMGWFRQAPGKERERVASISSTDGSTTYADSVKGRFTVSQDTAKNTLYLQMNSLKPEDTAMYYCAAYQFGAFRVWGQGTQVTVSS
B6: hzRap-C10-hFc (antibody, V domains shown)
VH: EVQLVESGGGLVQPGGSLRLSCAASGFTYIPAYMGWFRQAPGKERERVASISSTEGSTTYADSVKGRFTISQDNSKNTLYLQMNSLRPEDTAVYYCAAYQFGAFRVWGQGTLVTVSS
B7: hzR1-C7-hFc (antibody, V domains shown)
VH: EVQLVESGGGLVQPGGSLRLSCAASGNLYRDPCMGWFRQAPGKDREGVAAMNTGADSTFYARSVKGRFTISRDNAKNTLYLQMNSLRAEDTAVYYCAASRYCTERTYTWRYDYDYWGQGTLVTVSS
B8: R1-C7-hFc (antibody, V domains shown)
VH: QVQLQESGGGPVQAEGSLRLSCTASGNLYRDPCMGWFRQAPGKDREGVAAMNTGADSTFYARSVKGRFTISHDNAKNTLYLQMNSVKPEDTAMYYCAASRYCTERTWTWRYDYDYWGQGTQVTVSS
B9: R1-A12-hFc (antibody, V domains shown)
VH: QVQLQESGGGPVQAGGSLRLSCSASTTAYDNACMGWFRQAPGKEREGVASIHLRDRTYYADSVKGRFTLSRDGASKTLYLQMNSLKPEDSGTYYCASSNICNGLNLQGNTYWGQGTQVTVSS
B10: hzR1-A12-hFc (antibody, V domains shown)
VH: EVQLVESGGGLVQPGGSLRLSCAASGTAYDNACMGWFRQAPGKEREGVASIHLRDRTYYADSVKGRFTISRDNSKNTLYLQMNSLRAEDTAVYYCASSNICNALNLQGNTYWGQGTLVTVSS
B11: R1-F9-hFc (antibody, V domains shown)
VH: QVQLQESGGGSVQAGETLRLSCTASGFTVHDMGWYRQAPGNECELVSTISSDGSTYYADSVKGRFTISQDNAKNTVYLQMNSLKPEDTAVYYCAADHFTGLQLAECKADFGYWGQGTQVTVSS
B12: hzR1-F9-hFc (antibody, V domains shown)
VH: EVQLVESGGGLVQPGGSLRLSCAASGFTVHDMGWYRQAPGKECELVSTISSDASTYYADSVKGRFTISRDNAKNTLYLQMNSLRAEDTAVYYCAADSFTGLQLAECKADFGYWGQGTLVTVSS
B13: R1-C10-hFc (antibody, V domains shown)
VH: QVQLQESGGGSVQAGETLRLSCTASGSTFDEYDMGWYRQAPGNKCELVSTISTIDGSTYYADSVKGRFTISQDNTKNTVYLQMNSLKPEDTGVYYCEADDRGTWDRGGCWGQGTQVTVSS
B14: hzR1-C10-hFc (antibody, V domains shown)
VH: EVQLVESGGGLVQPGGSLRLSCAASGSTFDEYDMGWYRQAPGGKCELVSTISTIDASTYYADSVKGRFTISRDNSKNTLYLQMNSLRAEDTAVYYCEADDRGTWDRGGCWGQGTLVTVSS

Biological target: T1, IL-18RAP ECD-His
Experiment: BLI

Going from B1 to B2, the Kd rises from 0.53 nM to 4.85 nM (9.2-fold).

Going from B3 to B4, the Kd rises from 0.986 nM to 4.58 nM (4.6-fold). The first binds more tightly here.

Compared with B5, B6 is 3.6-fold higher in Kd: 1.73 nM for the first, 6.24 nM for the second.

Biological target: T2, IL-18R1 ECD-His
Experiment: BLI

B7 and B8 are within 1.5-fold of each other in Kd: 2.53 nM for the first, 2.56 nM for the second.

B9 and B10 are within 1.5-fold of each other in Kd: 2.82 nM for the first, 2 nM for the second.

Going from B11 to B12, the Kd rises from 1.1 nM to 3.74 nM (3.4-fold). The first binds more tightly here.

First: B13
Second: B14
The Kd of the first is 52-fold lower: 0.0281 nM for the first, 1.45 nM for the second. The first binds more tightly here.
